Measurements as given in the supplement of paper PMC9170038.

Tests used:
MS2 coat protein [1] = assay: apparent KD of MS2 coat protein, switch ON state; designed switch direction (-1 OFF switch, 1 ON switch): -1; higher = weaker reporter binding; details: FMN input: 0 or 200 uM; Eterna round: R93 (includes R88 designs)
Summary of the method: (§1)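 Normalised binding curves from single clusters were fitted, and the median fit for each design is given as apparent KD. The clusters held designed RNA switches transcribed on-chip from Illumina sequencing clusters. These were titrated with SNAP-549-labelled MS2 coat protein (twofold steps from 0.7 or 1.5 nM to 3 µM, 0.8–1.5 h to 10–20 min per step) in 100 mM Tris-HCl pH 7.5, 80 mM KCl, 4 mM MgCl2, without or with constant ligand.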

MS2 coat protein [2] = assay: apparent KD of MS2 coat protein, switch OFF state (with FMN for OFF switches, without FMN for ON switches); designed switch direction (-1 OFF switch, 1 ON switch): -1; higher = weaker reporter binding; details: FMN input: 0 or 200 uM; Eterna round: R93 (includes R88 designs)
Summary of the method: as §1

Sequence	apparent KD of MS2 coat protein (MS2 coat protein [1])	apparent KD of MS2 coat protein (MS2 coat protein [2])
AAAAAAAGAGGAUAUACGAACAUGUCAAAAGACGUGAAGGGACAUGAGGAUCACCCAUGUAGAAGGCUUAAAAA [JL Part Open 28]	38.7 nM	26.3 nM
AAAAAACAUGAGGAUCACCCAUGUAAGGAUAUGCAAAAUAAAAGAAAUAAAAAGAAAAGCAGAAGGUACAUUAA [JL wbt mod 9]	23.6 nM	37.9 nM
AAAAAACAUGAGGAUCACCCAUGUGAGGAUAUACAAAGAAAGACAGGCAAGUAAAGAGGUAGAAGGCGCAAAAA [Default title]	15.4 nM	18.2 nM
AAAAAACAUGAGGAUCACCCAUGUGAGGAUAUCCUAAAGGGAAUAAAAUAACUCAAAAGGAGAAGGCGCAAAAA [Ex 1 May 31]	60.2 nM	46.3 nM
AAAAAACAUGAGGAUCACCCAUGUGAGGAUAUCGCUAGUCAGUCAUCAGAGUGAGUGAUGAGAAGGCACAUAAA [Brourd 613 Mod 6 - Jieux - Exclusion 1]	26.3 nM	31.9 nM
AAAAAACAUGAGGAUCACCCAUGUGAGGAUAUCGCUAGUCAGUCCCUAGAGUGAGUGAUGAGAAGGCACAUAAA [Brourd 613 Mod 7 - Jieux - Exclusion 1]	40.9 nM	49.6 nM
AAAAAACAUGAGGAUCACCCAUGUGAGGAUAUCGGAAAAGGAAAAAAAAAAAAGAAGACGAGAAGGCACAAAGA	26.6 nM	28.6 nM
AAAAAACAUGAGGAUCACCCAUGUGAGGAUAUCGGAAAAGGAAAAAUAAAAAAGAAGACGAGAAGGCACACCAA [Mat - Exclusion 1 - Eli mod - D74]	20.9 nM	24.6 nM
AAAAAACAUGAGGAUCACCCAUGUGAGGAUAUCGGUAGUGAGGCUAUAGUGUCAAUAGUGAGAAGGCACAUAAA [Brourd 613 Mod 12 - Jieux - Exclusion 1]	31.1 nM	29.2 nM
AAAAAACAUGAGGAUCACCCAUGUGAGGAUAUCGUAAACAAAAAAAACAAAAACAAAUCGAGAAGGCACAAAAA [Amethyst 34]	21 nM	35.1 nM
AAAAAACAUGAGGAUCACCCAUGUGAGGAUAUCUGAAAAAAAAAAAAAAAAAAGAAAAAGAGAAGGCGCAAAGA [Ex 1 #2]	38 nM	35.1 nM
AAAAAACAUGAGGAUCACCCAUGUGAGGAUAUGAACGAAAAUAAAUAAAAAUAAAAGUUCAGAAGGUACGAAAA [66%, Wbt, 3]	25.2 nM	30.7 nM
AAAAAACAUGAGGAUCACCCAUGUGAGGAUAUGACGUAAAUAAAGAAAGAAGAAAUCGUCAGAAGGCACAAAAA [55%, Disencluded 2, 6]	42.3 nM	41 nM
AAAAAACAUGAGGAUCACCCAUGUGAGGAUAUGACGUAAAUAAAGAAAGAAGAAAUCGUCAGAAGGCACACCAA [55%, Disencluded 2, 5]	29.8 nM	43.1 nM
AAAAAACAUGAGGAUCACCCAUGUGAGGAUAUGAUGCGAAUAAAGAAAGAAGAAAGCAUCAGAAGGCACACCAA [58%, Disencluded 3, 1]	29.4 nM	52 nM
AAAAAACAUGAGGAUCACCCAUGUGAGGAUAUGCAAAAAAAAAAAAAAAAAAAAAAAAGCAGAAGGCGCAAAAA [4 GC Strong]	20.6 nM	38.9 nM
